Laboratory results from US20170009288, “METHOD FOR CONTROLLED DNA FRAGMENTATION” (THERMO FISHER SCIENTIFIC BALTICS UAB, published 2017).

What was measured:
MuA transposase [1] = molecular target: T1, MuA transposase (UniProt P07636 P07636:1-663); assay: EMSA; strong complex; 2% agarose with BSA and heparin, 1xTBE; assembled 30 C 1 h; details: tags: Thermo Scientific F-750 (stand-alone MuA transposase); chain copies: 4; 5' overhang TGCT side of non-transferred strand
Method: (§1) In parallel, EMSA analysis was performed for all pre-formed MuA-transposon complexes used in the first experiment (Table 3). DNA shifts resulting from transposome complex formation were analyzed using agarose gel electrophoresis in 2% agarose gel containing 87 μg/ml BSA and 87 μg/ml heparin in 1×TBE buffer. DNA was stained with ethidium bromide. […] Weaker complexes were formed with transposons No. 5, 10, 11.

MuA transposase [2] = molecular target: T1, MuA transposase; assay: EMSA; no apparent complex formation; details: tags: Thermo Scientific F-750 (stand-alone MuA transposase); chain copies: 4
Method: as §1

T1 sequence (P07636 whole entry, one chain of several): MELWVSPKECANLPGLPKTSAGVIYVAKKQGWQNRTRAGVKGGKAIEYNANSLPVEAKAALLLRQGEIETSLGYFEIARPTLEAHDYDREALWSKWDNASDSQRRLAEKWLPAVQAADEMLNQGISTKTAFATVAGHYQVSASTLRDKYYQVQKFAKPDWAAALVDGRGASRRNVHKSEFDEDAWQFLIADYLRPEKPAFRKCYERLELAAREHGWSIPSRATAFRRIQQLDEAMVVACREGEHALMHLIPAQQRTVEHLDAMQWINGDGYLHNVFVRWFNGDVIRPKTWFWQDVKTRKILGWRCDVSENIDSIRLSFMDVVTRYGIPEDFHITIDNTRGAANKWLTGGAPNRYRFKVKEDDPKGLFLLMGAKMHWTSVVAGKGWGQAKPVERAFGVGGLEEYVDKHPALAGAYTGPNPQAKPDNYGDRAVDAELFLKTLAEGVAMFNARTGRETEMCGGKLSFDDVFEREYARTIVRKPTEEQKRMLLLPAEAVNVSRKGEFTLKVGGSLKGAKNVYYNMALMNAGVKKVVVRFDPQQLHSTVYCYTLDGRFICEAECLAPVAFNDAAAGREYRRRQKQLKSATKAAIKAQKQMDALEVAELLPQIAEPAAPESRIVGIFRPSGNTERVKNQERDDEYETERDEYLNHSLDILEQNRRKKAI

B1: Control native Mu transposon end (dsDNA)
DNA 1: GTTTTCGCATTTATCGTGAAACGCTTTCGCGTTTTTCGTGCGTCAGTTCA
DNA 2: TGCTGAACTGACGCACGAAAAACGCGAAAGCGTTTCACGATAAATGCGAAAAC
binding result (MuA transposase [1]): binds

B2: Transposon No. 9 (dsDNA)
DNA 1: GTTCTCGCATCTATCGTGAAAAGCTTCTCCGTTCTTCGGCCGCCGCTTCA
DNA 2: TGCTGAAGCGGCGGCCGAAGAACGGAGAAGCTTTTCACGATAGATGCGAGAAC
binding result (MuA transposase [2]): no binding
